± gives the standard deviation of the averaged measurements.

This series deals with ATP. Briefly: switch fluorescence ratio, 500 uM ATP over buffer (Cy3 cluster intensity, sum of 5 cycles each) (fold (ratio)); higher = stronger signal-on switching upon ATP binding; sequences stand for … in TCGTCGGCAGCGTCAGATGTGTATAAGAGACAGTTTTTTTTTTTTTTTTTTTTTTTTT…TC. The following applies: aptamer strand: ATP DNA aptamer (quencher-CACCTGGGGGAGTATTGCGGAGGAAGG + anchor), 100 nM annealed; ATP concentration: 500 uM. In a few lines:
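The fluorescence ratio divides summed target-cycle Cy3 intensity by summed buffer-cycle Cy3 intensity for each cluster and is averaged per switch-domain sequence. Cy3-labelled switching-strand clusters on a modified Illumina MiSeq flow-cell were annealed to 100 nM quencher-labelled ATP aptamer, then imaged in selection buffer and again after 15 min with 500 uM ATP at 22 °C. Five such cycles were run, with NaOH stripping and re-annealing between them, and clusters outside 100-1000 RFU were excluded.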
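Note: ATP exposure 15 min at 22 °C before imaging.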

Consider AATAATCAGT, for which the switch fluorescence ratio is 1.05 ± 0.033. Turning to AATAATTTAA, the switch fluorescence ratio worked out at 0.995 ± 0.021. To AATACAATGG belongs 1.04 ± 0.011. As for AATACAGAGA, the switch fluorescence ratio was 1.01 ± 0.055. To AATACATCGG belongs 0.999 ± 0.022. The same measure for AATACATGTA: 0.984 ± 0.013.

In the case of AATACGGGAG, the switch fluorescence ratio was determined as 0.995 ± 0.017. In the case of AATACGGGGA, the switch fluorescence ratio turned out to be 1.02 ± 0.024. The same measure for AATACGGGGT: 1.03 ± 0.033; for AATACGTAGT: 1.04 ± 0.078; for AATACGTTAG: 1.01 ± 0.027. The same measure for AATAGACCTT: 1.13 ± 0.17. The same measure for AATAGACTT: 0.999 ± 0.013. With AATAGAGGTT, the switch fluorescence ratio was 0.965 ± 0.02.

As to AATAGCAACT, the switch fluorescence ratio worked out at 1.06 ± 0.029.

Turning to AATAGCCGGG, the switch fluorescence ratio came to 0.97 ± 0.066. To AATAGGGGCA belongs 0.949 ± 0.017.

AATAGGGGGA: the switch fluorescence ratio was 1.01 ± 0.034.

In the case of AATAGGGGGG, the switch fluorescence ratio was found to be 1.01 ± 0.024. To AATAGGGTGT belongs 1.07 ± 0.046; to AATATAGGCG, 1.04 ± 0.073; to AATATATCCG, 1.03 ± 0.02. To AATATATGT belongs 1.02 ± 0.023.

Take AATATCCTAT: the switch fluorescence ratio turned out to be 1.01 ± 0.03. The same measure for AATATCGCGG: 1.0264 ± 0.001; for AATATCGGCA: 0.982 ± 0.027; for AATATCGGGA: 0.983 ± 0.038. For the sequence AATATCTCTG, the switch fluorescence ratio was determined as 1.02 ± 0.03. As to AATATGAATT, the switch fluorescence ratio worked out at 1.01 ± 0.016. The same measure for AATATGTGTA: 0.987 ± 0.018; for AATATTAGGT: 0.995 ± 0.023; for AATATTCCAT: 1.02 ± 0.045. The same measure for AATATTTTGG: 1.013 ± 0.0037. To AATCAGATCG belongs 0.962 ± 0.018.

Consider AATCAGGACA, for which the switch fluorescence ratio is 0.9959 ± 0.0076.

Turning to AATCATATGG, the switch fluorescence ratio was determined as 0.969 ± 0.057.

Turning to AATCATATTT, the switch fluorescence ratio was determined as 1.02 ± 0.018. The same measure for AATCATTTTG: 1 ± 0.018; for AATCCGGAAC: 1.92 ± 0.023. Take AATCCTAGTT: the switch fluorescence ratio amounted to 1.01 ± 0.011.

As for AATCGAGGAG, the switch fluorescence ratio amounted to 0.957 ± 0.053. To AATCGAGTGG belongs 0.969 ± 0.06. The same measure for AATCGGAGCA: 1.349 ± 0.0071; for AATCGGCCGG: 1.01 ± 0.053; for AATCGGCTGG: 1.01 ± 0.011. The same measure for AATCGGGACC: 0.9905 ± 0.002; for AATCGGGCAA: 1.34 ± 0.03. For the sequence AATCGGGGCG, the switch fluorescence ratio stood at 0.905 ± 0.016.

For the sequence AATCGTTAAA, the switch fluorescence ratio was 0.9812 ± 0.0069.

Take AATCTACGCA: the switch fluorescence ratio was determined as 1.44 ± 0.32.

Take AATCTACTGA: the switch fluorescence ratio amounted to 1.013 ± 0.01. As for AATCTATAAT, the switch fluorescence ratio came out at 1.007 ± 0.0018. Consider AATCTTCATG, for which the switch fluorescence ratio was 0.997 ± 0.044.

In the case of AATCTTCTGG, the switch fluorescence ratio is 0.98 ± 0.025. To AATCTTGGGA belongs 0.977 ± 0.028; to AATCTTGGGC, 0.9771 ± 0.0096; to AATCTTGTTG, 0.998 ± 0.021. The same measure for AATCTTTGCT: 1.011 ± 0.0063; for AATCTTTGTG: 0.976 ± 0.033. To AATGAAAGGT belongs 1.01 ± 0.022; to AATGAACATG, 0.978 ± 0.037. With AATGAAGGTC, the switch fluorescence ratio was determined as 0.965 ± 0.079. The same measure for AATGAAGTGT: 0.996 ± 0.012; for AATGAATCGT: 1 ± 0.015; for AATGAATTGG: 0.9691 ± 0.005.

Take AATGACTCAT: the switch fluorescence ratio came to 0.9808 ± 0.0049. The same measure for AATGAGAGTT: 0.9909 ± 0.0011. The same measure for AATGAGGGGG: 0.978 ± 0.05; for AATGAGTCAA: 1 ± 0.021. To AATGAGTGTG belongs 0.9805 ± 0.0029. On to AATGATAGTA, for which the switch fluorescence ratio was 1.006 ± 0.0034. The same measure for AATGATATCA: 1.01 ± 0.025; for AATGATCGAC: 0.975 ± 0.012; for AATGATGCCT: 0.995 ± 0.036.

Turning to AATGATGTAC, the switch fluorescence ratio was 1.05 ± 0.01. To AATGCACTCG belongs 1.04 ± 0.05. To AATGCAGATT belongs 1.031 ± 0.008. To AATGCCAAGG belongs 1 ± 0.03. As to AATGCGCCAG, the switch fluorescence ratio was 1.03 ± 0.025.

The values are drawn from the supplement of paper PMC10126150.
